The values that follow come from the DeepSol protein solubility set.

The nature of the data set: soluble on expression in E. coli; label from the status in PepcDB or PDB records.
For “MGSDKIHHHHHHMGTVNRAVFLDRDGVINKDHGYVHQVDDFEYIEGVFEACLALKQQGYKLVVVTNQSGIARGMYTEDQFHSLTEWMDWNFADKGVDLDGIYYCPHHNEKGIGEYKVDCDCRKPKPGMLIDAAKFLKIDLSQSVMVGDKTDDMLAAKAAGVPTRILVRTGKAIADESDASVVLDSIADVPAFLKNHKAS”, the “soluble on expression in E. coli” value is “not soluble”.
Regarding “VSAETAARIDAESDSMDWPQEVTLGEVLRERFGDDLVDHVVSALQGGVYSSTSDDLSLRDTVPQLARALDRLKEEGKPVTITAAVQSIMADREKRNKARGYKPSVFAAFPGGYAELYEALAEKSGAKIHIDAFITGIQWKDGFTLKGAEGTFDK”, the “soluble on expression in E. coli” value is “not soluble”.
For “MMKNFVCTTCGVQYAASVEEPVSCHICDEERQYVNPKGQSWTTLENLQTDDTYKNEIIKEENGLYSITTKPGFAIGQTAFVVKTESYRLLWDCITYLDETTITKIKELGGLDAIALSHPHYYSTQVEWAETFDVPIYIHEDDKEWVMRPSSRIIYWSGESLQLADGITVHRLGGHFSGGSVLHWEEGNDGKGILLTGDIIQVVADERWVSFMYSYPNLIPLPARKVEEMVNRVKPLQFNRLYNAFHRVVKENANEAVERSAERYIKAIEGKLFHT” the value was “not soluble”; for “ISSEQDAINNRFLPTTDRFSERGSYGNFNYAAYQPEAAIGGEKNPLIVWLHGIGEVGTDINIPLLASNVARLTEDPIQSHFTSTGSGGQKGAYVLVPQSSIPWSQNQTASLMALIKAYVASHPDIDSRRIYLAGVSNGGGMTLDMGVAYPNYFAALVPIAASYSNQLTDNQITAAALKALKGQPMWLIHTRTDKTISADSSVLPFYKELLQAGAQNKWLSYYETNVGKHHSGVTYNGHWSWIYFLNDQV”, “not soluble”; for “MAHHHHHHSLIDGLLITELNKLTPGSSYIFLDYDGTLVPIIMNPEQSLADPELIEMLTELRSKYKLFIVSGRSPEEIKRFIPLDLNLICYHGACSIVNGKTYYYNNAQSFLGIFNEIYQSSLNLVNEFPGLRIYKKNLAVLYHFGLMKPQDVPALERVIVEISQKEHVDVYKGKMIFELRVPGVNKGIAIKNVRDEETALIAGDDATDECSFKYNEDAITIKVGPGKTSAHFRVNDYSEMREVLKLLLNNAEKRSEG”, “soluble”.
Under “MNQVTTYLWETHLPGGSHWSGVVRRGTTLRLTDVSGGANAAVLFYNLEEKLERYNMADTLKTQHTFCLTKGHACHSDMGRIFCCITEDTAGWHDTVCGLSDAELIQQKYGTGRYQELRNDMYRNGLDGMLVELGKWGLGRRDVVSNINFFSKVTANSVGELQFHVSHSKAGDHVDLAFAMDTLVVLSAAPHPLDPAATYRPGAVNLAVFPSTPAVTGACAHIAENARGLENTRRLYAYGGVKLEHHHHHH” stands “soluble”; under “MGSDKIHHHHHHMITASIVTYHHHFKDIRKVIECILSSPVSILYIIDNSSNDRLRELAKISAKIKYIHSVNLGYGAGHNIAIRESIDIGATYHIVVNPDIYFEEGVIEKLIIYMNKYSEVGLVMPRVLYPNGELQYLCKLLPTPFDLLFRRFLPWRRYVEKKNEKYELRFTNYSREMEVPSLSGCFMFVRIAVLKKVGGFDERYFMYAEDLDLCRRIGKVSRTMYYPNVVVYHEYAKGSYKNRRLLRYHLSSVVKYFNKWGWVWDLDRKIINKRILDNLKNV”, “not soluble”; under “MSLKSVIVPAPGKIEIREVETPVINAYQALVKTEMVALCNATDSKLIAGHFPGVDTYPLALGHENAGIVVAVGEKVRNFKVGDRAIGGLISDFGAQGINSGWGGFSEYVVVNDFEVLKEEGLATPEQGCWDSFEIQNSVPAHVQPEEAVISCTWREVLGAFKDFNLTPGKKVIVVGSGPVGLSFVKLGKLFGLGQIDIVDMLPAKLEVARRMGADNGYTPAEISTPEFIAAAGRSYDAVIDAVGLDVVVNSVLPLVKMGGDVCVYGVMTKNPTFDLSKAPYNFDLHMHQWPTRSEEKAAMTTLAQWIEEGTLSASDFITHRFKIEEIEEAFAAVKRGEVLKCVLTEGHHHHHH”, “not soluble”.
For “MQRYNSTYVVKRDGRKEDVHFDKITSRIQKLSYGLNMDFVDPVAVAIKVISGLYKGVTTVELDNLAAETAASMTTQHPEYALLAARIAVSNLHKKTNKVFSEVMKTLHEFHHPHTGKHAPMISDETWAIIEKNADKLNSAIVYDRDYSYTYFGFKTLERSYLLKINKEIVERPQQMLMRVSIGIHGDDITSAIETYNLMSERYMTHASPTLFNSGTCRPQMSSCFLLTMSEDSILGIYDTLKQCALISKSAGGIGLNVHKIRATGSVIAGTNGTSNGLIPMLRVYNNTARYVDQGGNKRPGAFAIYLEPWHADIFEFVSLRKNTGPEEERARDLFLALWIPDLFMKRVEKDQEWSLMCPCECPGLDDCWGEEFEALYAKYEAEGRVRKTVKARKLWEHIVSNQIETGLPYITYKDAANRKSNQQNLGTIKCSNLCTEIIEYSAPDEIAVCNLASIALNRYVTPEKKFDFVKLAEVTKVITRNLNKIIDVNYYPVEEARNSNMRHRPIGLGVQGLADCFMLMRYPFTSAEARDLNKRIFETIYYAALEASCELAELNGPYSTYEGSPVSKGQLQFDMWGVTPTDQCDWATLRKKIAKHGIRNSLLMAPMPTASTAQILGNNESIEPYTSNIYSRRVLSGDFQIVNPHMLKDLVERGLWTDEMKNRLIANNGSIQNIDGIPSDIKELYRTVWEISQKDIIEMAADRGAYIDQSQSLNIHMAKPSYAGITSMHFYGWKKGLKTGMYYLRTKPAVNAVQFTVDKNALKTNQQAETPATVAESQDEGCLMCSG”, the “soluble on expression in E. coli” value is listed as “not soluble”.
Under “MSAQAAKVSKKELNSNHDGADETSEKEQQEAIEHIDEVQNEIDRLNEQASEEILKVEQKYNKLRQPFFQKRSELIAKIPNFWVTTFVNHPQVSALLGEEDEEAMHYLTRVEVTEFEDIKSGYRIDFYFDENPYFENKVLSKEFHMNESGDPSSKSTEIKWKSGKDMTKRSSQTQNKASRKRQHEEPESFFTWFTDHSDAGADELGEVIKDDIWPNPLQYYLVPDM” stands “soluble”; under “MGSDKIHHHHHHMKISLGPLLYCWEKQQVIDFYQQVANSQIPLVYLGEAVCSRRRELKWGDYLELAKMLKSAGKDVVLSTLALIEAPSEYTELKRQVDNGEFMIEANDMAAVYLAKEHKQPFVCGASINNYNRASLDILQRLGMQRFVMPVELSKTWLSQVVDKKPSFEVEVLGHGYLPLAHSARCFTARHSQLAKDSCETVCRQYSKGLLAQTQEAQPLLRLNGIQTQSASCVDLRSEISAMVKIGVDVFRVSPSSLACIAKADALVEALNSGAMDAQYPLSDEHCNGYWFGEAGLKSLS”, “not soluble”; under “MRGSHHHHHHGMASHMATEQTAITRATFDEVILPVYAPADFIPVKGKGSRVWDQQGKEYIDFAGGIAVTALGHCHPALVEALKSQGETLWHTSNVFTNEPALRLGRKLIDATFAERVLFMNSGTEANETAFKLARHYACVRHSPFKTKIIAFHNAFHGRSLFTVSVGGQPKYSDGFGPKPADIIHVPFNDLHAVKAVMDDHTCAVVVEPIQGEGGVQAATPEFLKGLRDLCDEHQALLVFDEVQCGMGRTGDLFAYMHYGVTPDILTSAKALGGGFPVSAMLTTQEIASAFHVGSHGSTYGGNPLACAVAGAAFDIINTPEVLQGIHTKRQQFVQHLQAIDEQFDIFSDIRGMGLLIGAELKPKYKGRARDFLYAGAEAGVMVLNAGADVMRFAPSLVVEEADIHEGMQRFAQAVGKVVA”, “soluble”.
For “SAGAAPTTAFGQAVIGPPGSGKTTYCLGMSEFLRALGRRVAVVNLDPANEGLPYECAVDVGELVGLGDVMDALRLGPNGGLLYCMEYLEANLDWLRAKLDPLRGHYFLFDCPGQVELCTHHGALRSIFSQMAQWDLRLTAVHLVDSHYCTDPAKFISVLCTSLATMLHVELPHINLLSKMDLIEHYGKLAFNLDYYTEVLDLSYLLDHLASDPFFRHYRQLNEKLVRLIEDYSLVSFIPLNIQDKESIQRVLQAVDKANGYCFGAQEQRSLEAMMSAAMGADFHFSSTLGIQEKYLAPSNQSVEQEAMQL”, the “soluble on expression in E. coli” value was “not soluble”.
Under “MGHHHHHHSHMRVFALQLESFKENLMQSLFNSIPKKSVIVLPEYVINPFFHHNMGLDVNEISDQSARAVEFLSQKCEELDLIVSAPVLLEEHSKIYKKIALISKESVKYYTQQRLIPYPHWDEESFFDNEKSAFKELLVFERDGLKFAPLFGFEAHFDEIWVQAKNQGVDVVLLSSVATFESNERWRLLCQMRAFCASCVVVRANRIGAYRQIIVEEDQKNEFLWKFYGDSFVALPNGAIEDSLEGKMGALNAQIDKNDIDEWAKLWHFRTIKEG” stands “soluble”.
